Assay results from paper PMC8136768.

Molecular target: CEBPβ bZIP DNA-binding domain (pXC1599) (Homo sapiens, UniProt P17676 269-344)
Test: X-ray crystallography

CEBPβ bZIP DNA-binding domain (pXC1599), sequence (P17676 269-344): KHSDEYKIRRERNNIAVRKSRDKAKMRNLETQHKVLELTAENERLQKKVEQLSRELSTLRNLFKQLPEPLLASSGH

B1: Crystal 16-mer, T:G mismatch (dsDNA)
DNA 1: AGGATTGTGCAATATA
DNA 2: ATATTGCGCAATCCTT
**Q.** Does B1 bind?
**A.** binds
